The source of these data is publication PMC11188837 (mAbs, 2024).

For test [1], the target named is integrin αVβ6 ectodomain (human) (human, UniProt P06756-1;P18564-1). Description: fluorescence polarisation. In general terms: In fluorescence polarisation assays a small probe gives low polarisation when free and higher when bound to something large.
The target in test [2] is integrin αVβ8 ectodomain (human) (human, UniProt P06756-1;P26012-1). Description: fluorescence polarisation.

No end group written: not given here. *: point of attachment. FITC = O=C1OC2(c3ccc(O)cc3Oc3cc(O)ccc32)c2ccc(NC(=S)*)cc21; Ahx = NCCCCCC(=O)O

integrin αVβ8 ectodomain (human), sequence (P06756 31-992, chain 1 of 2): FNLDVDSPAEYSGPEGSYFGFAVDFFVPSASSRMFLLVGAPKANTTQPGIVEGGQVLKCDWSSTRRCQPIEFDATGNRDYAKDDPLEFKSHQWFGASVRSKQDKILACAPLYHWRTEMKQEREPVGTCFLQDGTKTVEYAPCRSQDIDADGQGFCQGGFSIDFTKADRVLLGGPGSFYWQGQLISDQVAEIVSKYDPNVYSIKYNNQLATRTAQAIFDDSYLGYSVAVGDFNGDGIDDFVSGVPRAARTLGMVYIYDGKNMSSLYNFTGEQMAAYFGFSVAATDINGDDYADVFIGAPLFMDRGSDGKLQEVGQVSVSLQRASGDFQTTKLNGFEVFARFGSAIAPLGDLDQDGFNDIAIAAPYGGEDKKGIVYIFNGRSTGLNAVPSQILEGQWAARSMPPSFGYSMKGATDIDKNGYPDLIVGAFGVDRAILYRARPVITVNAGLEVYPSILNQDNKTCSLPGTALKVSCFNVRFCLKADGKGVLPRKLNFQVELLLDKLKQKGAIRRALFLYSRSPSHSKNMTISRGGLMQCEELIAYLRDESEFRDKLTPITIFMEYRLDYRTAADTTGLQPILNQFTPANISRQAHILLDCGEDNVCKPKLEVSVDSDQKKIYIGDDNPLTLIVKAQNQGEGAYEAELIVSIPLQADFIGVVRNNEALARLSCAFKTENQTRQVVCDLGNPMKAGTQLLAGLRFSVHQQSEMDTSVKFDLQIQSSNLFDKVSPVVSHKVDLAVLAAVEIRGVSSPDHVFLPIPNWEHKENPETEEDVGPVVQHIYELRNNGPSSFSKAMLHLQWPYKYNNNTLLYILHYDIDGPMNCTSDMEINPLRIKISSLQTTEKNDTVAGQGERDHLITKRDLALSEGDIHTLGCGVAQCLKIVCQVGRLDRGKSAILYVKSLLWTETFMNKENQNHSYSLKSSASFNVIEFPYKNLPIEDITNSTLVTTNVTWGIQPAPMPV
integrin αVβ8 ectodomain (human), sequence (P26012 43-684, chain 2 of 2): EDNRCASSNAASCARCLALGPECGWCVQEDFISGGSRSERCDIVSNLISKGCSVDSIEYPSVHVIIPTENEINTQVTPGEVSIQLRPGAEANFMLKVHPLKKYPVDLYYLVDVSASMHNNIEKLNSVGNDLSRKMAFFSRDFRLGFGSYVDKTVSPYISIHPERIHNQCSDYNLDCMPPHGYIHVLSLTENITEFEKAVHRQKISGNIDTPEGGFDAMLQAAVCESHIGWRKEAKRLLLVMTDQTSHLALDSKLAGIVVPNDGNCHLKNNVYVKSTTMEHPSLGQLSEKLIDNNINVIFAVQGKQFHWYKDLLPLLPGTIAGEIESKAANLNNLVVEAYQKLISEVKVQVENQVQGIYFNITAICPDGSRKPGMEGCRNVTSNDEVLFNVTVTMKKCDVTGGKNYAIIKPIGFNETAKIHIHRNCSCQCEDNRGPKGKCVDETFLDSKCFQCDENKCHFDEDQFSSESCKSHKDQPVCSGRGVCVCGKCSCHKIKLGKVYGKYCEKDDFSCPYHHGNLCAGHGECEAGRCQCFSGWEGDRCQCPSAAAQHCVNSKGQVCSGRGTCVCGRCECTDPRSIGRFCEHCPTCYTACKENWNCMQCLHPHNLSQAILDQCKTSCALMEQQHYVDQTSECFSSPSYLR
integrin αVβ6 ectodomain (human), sequence (P06756 31-992, chain 1 of 2): as the sequence (P06756 31-992, chain 1 of 2) above
integrin αVβ6 ectodomain (human), sequence (P18564 22-709, chain 2 of 2): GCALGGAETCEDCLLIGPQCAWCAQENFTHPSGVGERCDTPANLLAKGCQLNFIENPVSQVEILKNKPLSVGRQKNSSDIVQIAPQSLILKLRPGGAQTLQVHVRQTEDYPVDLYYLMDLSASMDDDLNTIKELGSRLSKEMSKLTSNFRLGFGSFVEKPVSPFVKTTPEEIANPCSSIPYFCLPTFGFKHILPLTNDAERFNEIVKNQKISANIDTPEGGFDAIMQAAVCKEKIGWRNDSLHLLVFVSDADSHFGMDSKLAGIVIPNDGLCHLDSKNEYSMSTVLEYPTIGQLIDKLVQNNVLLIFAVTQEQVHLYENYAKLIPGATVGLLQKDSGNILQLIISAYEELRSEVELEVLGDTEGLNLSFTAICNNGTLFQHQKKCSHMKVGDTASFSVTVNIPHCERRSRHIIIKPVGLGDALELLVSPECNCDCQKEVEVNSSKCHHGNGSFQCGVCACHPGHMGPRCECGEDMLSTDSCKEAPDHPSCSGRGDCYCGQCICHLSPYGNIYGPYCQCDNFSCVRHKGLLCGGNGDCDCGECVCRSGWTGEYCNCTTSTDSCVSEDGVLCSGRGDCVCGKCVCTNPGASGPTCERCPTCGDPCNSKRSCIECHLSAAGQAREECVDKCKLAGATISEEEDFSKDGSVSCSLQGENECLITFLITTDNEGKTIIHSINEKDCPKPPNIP

With {FITC-Ahx}-GRGDLGRLKK [FITC-labeled aminocaproic acid-GRGDLGRLKK peptide], the binding result in test [1] and in test [2] was “binds” in each case.
